In the supplement of paper PMC10126150:
± gives the standard deviation of the averaged measurements.

System: ATP
Assay: switch fluorescence ratio, 500 uM ATP over buffer (Cy3 cluster intensity, sum of 5 cycles each) (fold (ratio)); higher = stronger signal-on switching upon ATP binding; sequences stand for … in TCGTCGGCAGCGTCAGATGTGTATAAGAGACAGTTTTTTTTTTTTTTTTTTTTTTTTT…TC
Conditions: aptamer strand: ATP DNA aptamer (quencher-CACCTGGGGGAGTATTGCGGAGGAAGG + anchor), 100 nM annealed; ATP concentration: 500 uM
Method in brief: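 Cy3-labelled switching-strand clusters on a modified Illumina MiSeq flow-cell were annealed to 100 nM quencher-labelled ATP aptamer and imaged first in selection buffer, then after 15 min with 500 uM ATP at 22 °C. NaOH stripping and re-annealing separated each of five buffer/ATP cycles, and clusters outside 100-1000 RFU were excluded. The fluorescence ratio sums target-cycle Cy3 intensity over buffer-cycle Cy3 intensity per cluster and averages it per switch-domain sequence.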
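Further: ATP exposure 15 min at 22 °C before imaging.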

TTGGCGGGTG
switch fluorescence ratio: 1.04 ± 0.041

TTGGCTTGTC
switch fluorescence ratio: 0.954 ± 0.019

TTGGCTTTGG
switch fluorescence ratio: 0.967 ± 0.0056

TTGGGAAACT
switch fluorescence ratio: 1.15 ± 0.24

TTGGGAATCA
switch fluorescence ratio: 0.988 ± 0.026

TTGGGACGGA
switch fluorescence ratio: 1.01 ± 0.034

TTGGGACGGG
switch fluorescence ratio: 0.994 ± 0.022

TTGGGAGATG
switch fluorescence ratio: 1.1 ± 0.13

TTGGGAGCTT
switch fluorescence ratio: 1.01 ± 0.048

TTGGGAGGGA
switch fluorescence ratio: 1 ± 0.038

TTGGGAGGGG
switch fluorescence ratio: 1.04 ± 0.083

TTGGGAGTTG
switch fluorescence ratio: 0.984 ± 0.037

TTGGGATATG
switch fluorescence ratio: 1.02 ± 0.065

TTGGGCACGG
switch fluorescence ratio: 0.991 ± 0.0052

TTGGGCAGTA
switch fluorescence ratio: 0.978 ± 0.057

TTGGGCATCA
switch fluorescence ratio: 1 ± 0.065

TTGGGCCGCT
switch fluorescence ratio: 0.974 ± 0.1

TTGGGCCTGG
switch fluorescence ratio: 0.9806 ± 0.0061

TTGGGCTGGT
switch fluorescence ratio: 0.962 ± 0.035

TTGGGCTTGA
switch fluorescence ratio: 1.01 ± 0.056

TTGGGCTTGC
switch fluorescence ratio: 1.04 ± 0.029

TTGGGGAAAG
switch fluorescence ratio: 0.986 ± 0.038

TTGGGGACCC
switch fluorescence ratio: 1.03 ± 0.035

TTGGGGACTC
switch fluorescence ratio: 1 ± 0.026

TTGGGGAGAC
switch fluorescence ratio: 1.07 ± 0.061

TTGGGGATGT
switch fluorescence ratio: 1 ± 0.031

TTGGGGATTC
switch fluorescence ratio: 0.991 ± 0.02

TTGGGGATTG
switch fluorescence ratio: 0.989 ± 0.021

TTGGGGCACA
switch fluorescence ratio: 1.01 ± 0.031

TTGGGGCCAT
switch fluorescence ratio: 0.999 ± 0.029

TTGGGGCCCG
switch fluorescence ratio: 1.01 ± 0.082

TTGGGGCCTC
switch fluorescence ratio: 1 ± 0.033

TTGGGGGAAG
switch fluorescence ratio: 0.981 ± 0.026

TTGGGGGACA
switch fluorescence ratio: 1.01 ± 0.014

TTGGGGGCTT
switch fluorescence ratio: 1 ± 0.039

TTGGGGGGCC
switch fluorescence ratio: 1.01 ± 0.031

TTGGGGGGCG
switch fluorescence ratio: 1.01 ± 0.073

TTGGGGGTTA
switch fluorescence ratio: 1.02 ± 0.019

TTGGGGTAAC
switch fluorescence ratio: 1.009 ± 0.01

TTGGGGTGAA
switch fluorescence ratio: 1.1 ± 0.14

TTGGGGTGGG
switch fluorescence ratio: 1.01 ± 0.046

TTGGGGTGTG
switch fluorescence ratio: 1.01 ± 0.017

TTGGGGTTCG
switch fluorescence ratio: 0.98 ± 0.029

TTGGGTAAAT
switch fluorescence ratio: 0.985 ± 0.031

TTGGGTAAGC
switch fluorescence ratio: 0.994 ± 0.066

TTGGGTAAGG
switch fluorescence ratio: 0.993 ± 0.029

TTGGGTAATT
switch fluorescence ratio: 0.998 ± 0.022

TTGGGTACGA
switch fluorescence ratio: 0.997 ± 0.0043

TTGGGTCAGA
switch fluorescence ratio: 0.981 ± 0.018

TTGGGTGAAC
switch fluorescence ratio: 1.002 ± 0.0088

TTGGGTGAGG
switch fluorescence ratio: 0.98 ± 0.028

TTGGGTGTTT
switch fluorescence ratio: 1.06 ± 0.035

TTGGGTTCTC
switch fluorescence ratio: 0.983 ± 0.037

TTGGGTTTCG
switch fluorescence ratio: 1.01 ± 0.042

TTGGGTTTTC
switch fluorescence ratio: 1.03 ± 0.065

TTGGTAAGCG
switch fluorescence ratio: 1.02 ± 0.051

TTGGTAAGGG
switch fluorescence ratio: 1.03 ± 0.011

TTGGTACTGT
switch fluorescence ratio: 1.02 ± 0.014

TTGGTCCCGA
switch fluorescence ratio: 1.001 ± 0.0014

TTGGTCGCCC
switch fluorescence ratio: 1.08 ± 0.17

TTGGTCGTTT
switch fluorescence ratio: 0.956 ± 0.038

TTGGTCTGGT
switch fluorescence ratio: 0.973 ± 0.024

TTGGTGACGT
switch fluorescence ratio: 1.03 ± 0.022

TTGGTGGGTT
switch fluorescence ratio: 0.994 ± 0.04

TTGGTGGTCT
switch fluorescence ratio: 1.05 ± 0.075

TTGGTGGTGG
switch fluorescence ratio: 1.01 ± 0.053

TTGGTTCACC
switch fluorescence ratio: 0.955 ± 0.029

TTGGTTGAAA
switch fluorescence ratio: 1.01 ± 0.013

TTGGTTGAAG
switch fluorescence ratio: 1.02 ± 0.013

TTGGTTGACA
switch fluorescence ratio: 0.9641 ± 0.0094

TTGGTTGCAA
switch fluorescence ratio: 0.983 ± 0.029

TTGGTTGGCG
switch fluorescence ratio: 0.992 ± 0.041

TTGGTTGGGA
switch fluorescence ratio: 1 ± 0.042

TTGGTTGGGG
switch fluorescence ratio: 1 ± 0.03

TTGGTTGTTA
switch fluorescence ratio: 1.01 ± 0.041

TTGGTTTACC
switch fluorescence ratio: 0.957 ± 0.011

TTGGTTTATG
switch fluorescence ratio: 0.993 ± 0.045

TTGGTTTCAT
switch fluorescence ratio: 1.009 ± 0.0094

TTGGTTTGTA
switch fluorescence ratio: 1 ± 0.065

TTGGTTTTCG
switch fluorescence ratio: 0.973 ± 0.026

TTGGTTTTTT
switch fluorescence ratio: 1 ± 0.034

TTGTAAATCG
switch fluorescence ratio: 0.975 ± 0.02

TTGTAAATT
switch fluorescence ratio: 1.02 ± 0.043

TTGTAAATTT
switch fluorescence ratio: 1.012 ± 0.01

TTGTAAGGAT
switch fluorescence ratio: 1.02 ± 0.013

TTGTAATGTT
switch fluorescence ratio: 1.01 ± 0.051

TTGTAATTGT
switch fluorescence ratio: 0.995 ± 0.021

TTGTAATTTA
switch fluorescence ratio: 1.01 ± 0.019

TTGTACATCC
switch fluorescence ratio: 1.03 ± 0.013

TTGTACGCCA
switch fluorescence ratio: 1.31 ± 0.19

TTGTAGACAG
switch fluorescence ratio: 1.013 ± 0.0088

TTGTAGCGGT
switch fluorescence ratio: 1.05 ± 0.034

TTGTAGTGGG
switch fluorescence ratio: 1.02 ± 0.048

TTGTAGTTAC
switch fluorescence ratio: 1.034 ± 0.0049

TTGTATAGTG
switch fluorescence ratio: 0.933 ± 0.033

TTGTATATGT
switch fluorescence ratio: 1.0292 ± 2.1e-05

TTGTATCACG
switch fluorescence ratio: 1.03 ± 0.059

TTGTATGATT
switch fluorescence ratio: 1.013 ± 0.0075

TTGTATGGAC
switch fluorescence ratio: 1.019 ± 0.0076

TTGTATGGCA
switch fluorescence ratio: 0.973 ± 0.027

TTGTATGTTA
switch fluorescence ratio: 1 ± 0.017

TTGTCAATGT
switch fluorescence ratio: 1.06 ± 0.053

TTGTCACAGC
switch fluorescence ratio: 1.03 ± 0.022

TTGTCAGGGT
switch fluorescence ratio: 0.995 ± 0.026

TTGTCATGAT
switch fluorescence ratio: 1.006 ± 0.006

TTGTCGCGTA
switch fluorescence ratio: 1.01 ± 0.07

TTGTCGGTTT
switch fluorescence ratio: 0.983 ± 0.014

TTGTCGTCAC
switch fluorescence ratio: 1.01 ± 0.037

TTGTCTAATT
switch fluorescence ratio: 1.007 ± 0.0081

TTGTCTAGGG
switch fluorescence ratio: 0.98 ± 0.033

TTGTCTAGGT
switch fluorescence ratio: 1.01 ± 0.013

TTGTGACAGT
switch fluorescence ratio: 1.01 ± 0.024

TTGTGACGGG
switch fluorescence ratio: 1 ± 0.023

TTGTGATAGC
switch fluorescence ratio: 1.05 ± 0.075

TTGTGATTGC
switch fluorescence ratio: 1.03 ± 0.089

TTGTGCGAAA
switch fluorescence ratio: 1.01 ± 0.059

TTGTGCGCGG
switch fluorescence ratio: 1.04 ± 0.019

TTGTGCGGAC
switch fluorescence ratio: 1.01 ± 0.04

TTGTGCGTGG
switch fluorescence ratio: 0.971 ± 0.015

TTGTGCTGGA
switch fluorescence ratio: 1.04 ± 0.029

TTGTGGAAAA
switch fluorescence ratio: 0.953 ± 0.03

TTGTGGAAAC
switch fluorescence ratio: 1.02 ± 0.012

TTGTGGACTT
switch fluorescence ratio: 0.9995 ± 0.0093

TTGTGGATAA
switch fluorescence ratio: 1.01 ± 0.0094

TTGTGGCTTA
switch fluorescence ratio: 0.98 ± 0.036

TTGTGGGGCT
switch fluorescence ratio: 0.9974 ± 0.009

TTGTGGGGG
switch fluorescence ratio: 1.0016 ± 0.0009

TTGTGGGGGC
switch fluorescence ratio: 0.991 ± 0.038

TTGTGGGGTA
switch fluorescence ratio: 1 ± 0.023

TTGTGGGTAC
switch fluorescence ratio: 1.0042 ± 0.0004

TTGTGGTGAC
switch fluorescence ratio: 0.9866 ± 0.0012

TTGTGGTTCC
switch fluorescence ratio: 1.08 ± 0.14

TTGTGTTATC
switch fluorescence ratio: 1.01 ± 0.012

TTGTGTTGTA
switch fluorescence ratio: 1 ± 0.042

TTGTTAATAG
switch fluorescence ratio: 1.06 ± 0.062

TTGTTACGGA
switch fluorescence ratio: 1.01 ± 0.017

TTGTTACGGT
switch fluorescence ratio: 0.981 ± 0.041

TTGTTAGATT
switch fluorescence ratio: 0.994 ± 0.031

TTGTTATAGC
switch fluorescence ratio: 0.987 ± 0.042

TTGTTATGTG
switch fluorescence ratio: 0.955 ± 0.024

TTGTTCAAGG
switch fluorescence ratio: 0.981 ± 0.015

TTGTTCAGTT
switch fluorescence ratio: 1.02 ± 0.036

TTGTTCATTT
switch fluorescence ratio: 0.994 ± 0.012

TTGTTCTTAA
switch fluorescence ratio: 1.05 ± 0.11

TTGTTGGGCT
switch fluorescence ratio: 0.981 ± 0.039

TTGTTGGGGC
switch fluorescence ratio: 1.02 ± 0.035

TTGTTGGGTT
switch fluorescence ratio: 1.02 ± 0.061

TTGTTGTACT
switch fluorescence ratio: 1.02 ± 0.014

TTGTTGTAGG
switch fluorescence ratio: 0.993 ± 0.041

TTGTTGTGTT
switch fluorescence ratio: 1.005 ± 0.0098

TTGTTGTTCC
switch fluorescence ratio: 1.08 ± 0.063

TTGTTTAAGA
switch fluorescence ratio: 1.03 ± 0.082

TTGTTTACTT
switch fluorescence ratio: 1.04 ± 0.061

TTGTTTATAG
switch fluorescence ratio: 0.985 ± 0.03

TTGTTTATGT
switch fluorescence ratio: 0.9993 ± 0.0082

TTGTTTCAGT
switch fluorescence ratio: 0.997 ± 0.028

TTGTTTTAGT
switch fluorescence ratio: 1.06 ± 0.067

TTGTTTTATA
switch fluorescence ratio: 0.9733 ± 0.0064

TTGTTTTCAT
switch fluorescence ratio: 1.04 ± 0.018

TTGTTTTCGG
switch fluorescence ratio: 0.961 ± 0.02

TTGTTTTGGG
switch fluorescence ratio: 1 ± 0.019

TTGTTTTGGT
switch fluorescence ratio: 0.966 ± 0.016

TTGTTTTTGC
switch fluorescence ratio: 0.9959 ± 0.0089

TTTAAAAGGA
switch fluorescence ratio: 1.01 ± 0.056

TTTAAACCCT
switch fluorescence ratio: 1.03 ± 0.024

TTTAAAGAAA
switch fluorescence ratio: 1.02 ± 0.016

TTTAAAGCAG
switch fluorescence ratio: 1.01 ± 0.02

TTTAAAGGCC
switch fluorescence ratio: 0.9682 ± 0.00099

TTTAAAGGGA
switch fluorescence ratio: 1.06 ± 0.17

TTTAAAGTTG
switch fluorescence ratio: 1.05 ± 0.04

TTTAAAGTTT
switch fluorescence ratio: 0.99 ± 0.029

TTTAAATGTT
switch fluorescence ratio: 0.991 ± 0.031

TTTAAATTGA
switch fluorescence ratio: 0.986 ± 0.02

TTTAAATTGT
switch fluorescence ratio: 0.99 ± 0.035

TTTAAGACGG
switch fluorescence ratio: 0.98439 ± 0.00032

TTTAAGAGGG
switch fluorescence ratio: 0.978 ± 0.038

TTTAAGCTAC
switch fluorescence ratio: 4.03 ± 0.57

TTTAAGGGAT
switch fluorescence ratio: 1 ± 0.041

TTTAAGTCTC
switch fluorescence ratio: 1.001 ± 0.0062

TTTAAGTGCG
switch fluorescence ratio: 1.05 ± 0.09

TTTAATAAGG
switch fluorescence ratio: 0.9962 ± 0.0027

TTTAATACTG
switch fluorescence ratio: 1.08 ± 0.089

TTTAATATAG
switch fluorescence ratio: 1 ± 0.044

TTTAATATAT
switch fluorescence ratio: 1.02 ± 0.031

TTTAATCGTT
switch fluorescence ratio: 0.999 ± 0.014

TTTAATGATT
switch fluorescence ratio: 1.05 ± 0.021

TTTAATGTTT
switch fluorescence ratio: 1 ± 0.017

TTTAATTCAT
switch fluorescence ratio: 1.008 ± 0.0088

TTTAATTGTG
switch fluorescence ratio: 0.9891 ± 0.0082

TTTACAAATT
switch fluorescence ratio: 1 ± 0.02

TTTACAAGT
switch fluorescence ratio: 0.982 ± 0.035

TTTACAATGG
switch fluorescence ratio: 1.058 ± 0.0062

TTTACAGGTA
switch fluorescence ratio: 0.981 ± 0.021

TTTACCGGAG
switch fluorescence ratio: 1.15 ± 0.089

TTTACCGGGA
switch fluorescence ratio: 1.13 ± 0.15

TTTACGAAAG
switch fluorescence ratio: 1.04 ± 0.044

TTTACGGAAC
switch fluorescence ratio: 1.244 ± 0.0059

TTTACGGTAA
switch fluorescence ratio: 1.15 ± 0.019

TTTACGGTTG
switch fluorescence ratio: 0.996 ± 0.016

TTTACGTCGG
switch fluorescence ratio: 1.02 ± 0.034
